Experiment in all cases: Kinase Profiling Assay
Common to all, as to assay type: biochemical
Common to all, as to conditions: peptide 100 μM

One test deals with T1, IGF-1R(h), activated (Homo sapiens, UniProt P08069).
T1 construct: purchased Millipore
The procedure, abridged:
(§1)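 Radiometric filter-binding format: cationic substrate takes up labeled phosphate from ATP unless the inhibitor peptide blocks the kinase. Substrate bound to an anionic filter, scintillation-counted, normalized to 100% activity control. Duplicates; part of a 266-kinase selectivity panel for MK2 peptides.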

The target of a further test is T2, STK33(h) (Homo sapiens, UniProt Q9BYT3).
T2 construct: purchased Millipore
The procedure, abridged: as §1

The next test addresses Plk3(h) (Homo sapiens, UniProt Q9H4B4). Summed up: as §1
The target of another test is T3, GCK(h) (Homo sapiens, UniProt Q12851).
T3 construct: purchased Millipore
T3 sequence (Q12851 1-820): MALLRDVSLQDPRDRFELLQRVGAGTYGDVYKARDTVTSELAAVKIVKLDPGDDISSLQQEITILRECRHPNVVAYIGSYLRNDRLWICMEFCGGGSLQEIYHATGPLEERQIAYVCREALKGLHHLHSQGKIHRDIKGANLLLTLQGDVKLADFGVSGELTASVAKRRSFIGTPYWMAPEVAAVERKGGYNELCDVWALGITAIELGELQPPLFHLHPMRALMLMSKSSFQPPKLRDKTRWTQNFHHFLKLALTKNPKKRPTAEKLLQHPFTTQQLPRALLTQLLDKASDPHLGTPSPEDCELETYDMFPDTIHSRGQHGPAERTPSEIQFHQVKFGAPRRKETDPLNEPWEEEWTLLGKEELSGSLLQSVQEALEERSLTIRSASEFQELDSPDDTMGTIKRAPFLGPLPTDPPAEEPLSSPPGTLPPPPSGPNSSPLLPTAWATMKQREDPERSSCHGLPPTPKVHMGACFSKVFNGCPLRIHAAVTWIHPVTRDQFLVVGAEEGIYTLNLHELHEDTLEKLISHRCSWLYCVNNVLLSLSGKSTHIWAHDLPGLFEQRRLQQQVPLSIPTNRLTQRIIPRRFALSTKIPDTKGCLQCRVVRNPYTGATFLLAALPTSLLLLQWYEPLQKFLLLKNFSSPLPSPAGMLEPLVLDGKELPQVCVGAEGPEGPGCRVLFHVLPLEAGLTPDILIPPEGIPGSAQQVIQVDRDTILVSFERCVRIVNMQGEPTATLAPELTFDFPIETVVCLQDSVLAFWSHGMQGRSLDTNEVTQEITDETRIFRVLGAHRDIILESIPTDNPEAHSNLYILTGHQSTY
The procedure, abridged: as §1

The target in a further test is T4, GRK6(h) (Homo sapiens, UniProt P43250).
T4 construct: purchased Millipore
Summed up:
as §1

In the next test the target is T5, JNK3(h) (Homo sapiens, UniProt P53779).
T5 construct: purchased Millipore
Summed up: as §1

The target in another test is PKBα(h) (Homo sapiens, UniProt P31749). The procedure, abridged:
as §1

The next test deals with PDGFRα(V561D)(h) (Homo sapiens, UniProt P16234, V561D). The procedure, abridged: as §1
The next test has as its target T6, PRAK(h) (Homo sapiens, UniProt Q8IW41).
T6 sequence (Q8IW41 1-473): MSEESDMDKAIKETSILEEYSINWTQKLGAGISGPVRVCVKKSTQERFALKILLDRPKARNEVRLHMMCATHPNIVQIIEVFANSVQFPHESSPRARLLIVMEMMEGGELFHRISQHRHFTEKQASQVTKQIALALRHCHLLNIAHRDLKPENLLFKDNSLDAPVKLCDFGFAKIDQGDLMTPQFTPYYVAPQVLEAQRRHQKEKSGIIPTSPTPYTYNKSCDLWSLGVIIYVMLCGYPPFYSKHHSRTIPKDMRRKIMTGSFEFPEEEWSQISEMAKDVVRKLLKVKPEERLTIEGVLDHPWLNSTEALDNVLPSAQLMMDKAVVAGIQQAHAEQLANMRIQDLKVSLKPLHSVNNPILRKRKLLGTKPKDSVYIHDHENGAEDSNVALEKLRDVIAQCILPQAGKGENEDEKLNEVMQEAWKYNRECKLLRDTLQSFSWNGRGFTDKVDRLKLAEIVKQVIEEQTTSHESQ
Summed up: as §1

The target of another test is PKCβII(h) (Homo sapiens, UniProt P05771). Summed up: as §1

No end group written: not given here.

PKCβII(h), sequence (P05771 1-673 isoform P05771-2): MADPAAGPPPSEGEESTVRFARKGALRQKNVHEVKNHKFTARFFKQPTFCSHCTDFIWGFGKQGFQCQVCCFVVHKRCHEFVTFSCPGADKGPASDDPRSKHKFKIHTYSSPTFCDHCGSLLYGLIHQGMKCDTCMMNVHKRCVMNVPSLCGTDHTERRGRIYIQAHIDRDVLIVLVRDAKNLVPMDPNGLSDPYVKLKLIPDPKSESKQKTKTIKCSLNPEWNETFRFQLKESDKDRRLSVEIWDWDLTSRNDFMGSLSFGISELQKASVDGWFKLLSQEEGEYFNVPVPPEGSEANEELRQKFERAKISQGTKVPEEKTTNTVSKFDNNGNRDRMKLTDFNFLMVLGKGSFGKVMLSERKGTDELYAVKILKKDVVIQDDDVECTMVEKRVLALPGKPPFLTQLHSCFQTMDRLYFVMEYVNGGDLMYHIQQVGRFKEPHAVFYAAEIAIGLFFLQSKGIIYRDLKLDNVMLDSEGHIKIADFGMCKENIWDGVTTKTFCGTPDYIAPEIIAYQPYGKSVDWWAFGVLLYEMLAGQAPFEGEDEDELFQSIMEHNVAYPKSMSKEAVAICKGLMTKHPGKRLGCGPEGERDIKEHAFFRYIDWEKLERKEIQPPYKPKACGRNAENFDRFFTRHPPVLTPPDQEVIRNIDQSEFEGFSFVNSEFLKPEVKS
Plk3(h), sequence (Q9H4B4 whole entry): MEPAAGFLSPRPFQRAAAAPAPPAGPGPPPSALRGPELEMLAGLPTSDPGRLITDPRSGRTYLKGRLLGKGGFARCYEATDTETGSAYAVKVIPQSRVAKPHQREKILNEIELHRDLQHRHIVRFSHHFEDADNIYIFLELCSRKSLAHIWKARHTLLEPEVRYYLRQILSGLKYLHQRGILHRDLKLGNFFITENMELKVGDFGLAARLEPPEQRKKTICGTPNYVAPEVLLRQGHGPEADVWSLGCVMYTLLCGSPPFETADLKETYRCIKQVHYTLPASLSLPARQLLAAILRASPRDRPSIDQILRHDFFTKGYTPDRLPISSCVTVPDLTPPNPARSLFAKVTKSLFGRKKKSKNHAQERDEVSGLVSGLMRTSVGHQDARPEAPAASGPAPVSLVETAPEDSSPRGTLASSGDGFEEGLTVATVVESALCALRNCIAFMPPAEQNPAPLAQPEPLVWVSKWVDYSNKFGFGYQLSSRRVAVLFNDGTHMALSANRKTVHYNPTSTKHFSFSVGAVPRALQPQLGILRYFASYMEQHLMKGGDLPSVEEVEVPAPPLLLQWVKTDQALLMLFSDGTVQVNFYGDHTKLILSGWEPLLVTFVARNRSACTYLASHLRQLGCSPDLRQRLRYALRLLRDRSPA
PDGFRα(V561D)(h), sequence (P16234 24-1089 V561D): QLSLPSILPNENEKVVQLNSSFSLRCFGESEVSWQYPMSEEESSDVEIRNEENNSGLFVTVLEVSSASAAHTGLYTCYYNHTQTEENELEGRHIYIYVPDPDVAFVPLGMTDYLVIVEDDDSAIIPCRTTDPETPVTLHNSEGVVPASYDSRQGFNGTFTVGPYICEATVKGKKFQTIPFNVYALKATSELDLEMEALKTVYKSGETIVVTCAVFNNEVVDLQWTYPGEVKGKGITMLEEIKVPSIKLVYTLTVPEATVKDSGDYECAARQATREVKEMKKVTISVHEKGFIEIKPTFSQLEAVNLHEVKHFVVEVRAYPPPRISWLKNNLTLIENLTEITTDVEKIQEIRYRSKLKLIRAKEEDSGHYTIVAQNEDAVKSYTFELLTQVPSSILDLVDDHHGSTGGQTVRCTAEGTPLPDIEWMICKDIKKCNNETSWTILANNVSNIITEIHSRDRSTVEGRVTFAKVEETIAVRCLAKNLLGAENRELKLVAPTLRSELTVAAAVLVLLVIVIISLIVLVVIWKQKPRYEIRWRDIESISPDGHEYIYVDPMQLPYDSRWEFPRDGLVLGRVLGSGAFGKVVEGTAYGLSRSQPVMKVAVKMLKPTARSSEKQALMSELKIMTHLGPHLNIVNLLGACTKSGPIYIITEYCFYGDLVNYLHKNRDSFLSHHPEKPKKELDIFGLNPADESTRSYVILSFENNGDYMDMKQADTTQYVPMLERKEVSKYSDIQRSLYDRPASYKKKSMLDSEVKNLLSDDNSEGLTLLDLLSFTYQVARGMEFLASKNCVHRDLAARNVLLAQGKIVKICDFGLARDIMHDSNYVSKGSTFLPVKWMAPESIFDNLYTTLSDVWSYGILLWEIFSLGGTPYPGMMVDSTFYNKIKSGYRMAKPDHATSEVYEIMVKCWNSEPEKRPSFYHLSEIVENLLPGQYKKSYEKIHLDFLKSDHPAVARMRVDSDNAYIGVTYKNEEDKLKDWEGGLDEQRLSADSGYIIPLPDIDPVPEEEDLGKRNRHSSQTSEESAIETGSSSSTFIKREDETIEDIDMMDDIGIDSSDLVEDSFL
T2 sequence (Q9BYT3 whole entry): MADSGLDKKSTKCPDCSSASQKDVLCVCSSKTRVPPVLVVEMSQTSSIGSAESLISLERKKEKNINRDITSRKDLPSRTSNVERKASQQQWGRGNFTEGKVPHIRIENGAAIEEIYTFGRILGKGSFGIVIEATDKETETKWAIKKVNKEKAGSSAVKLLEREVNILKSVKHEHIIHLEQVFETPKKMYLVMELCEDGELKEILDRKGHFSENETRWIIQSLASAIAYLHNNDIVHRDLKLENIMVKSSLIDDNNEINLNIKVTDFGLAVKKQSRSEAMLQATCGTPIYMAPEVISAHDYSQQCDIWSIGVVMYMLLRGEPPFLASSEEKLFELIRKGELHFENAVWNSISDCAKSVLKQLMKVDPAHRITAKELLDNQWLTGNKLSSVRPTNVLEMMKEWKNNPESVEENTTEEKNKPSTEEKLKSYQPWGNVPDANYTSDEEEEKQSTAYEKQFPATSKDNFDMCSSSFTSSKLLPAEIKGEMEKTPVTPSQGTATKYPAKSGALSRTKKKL
T5 sequence (P53779 whole entry): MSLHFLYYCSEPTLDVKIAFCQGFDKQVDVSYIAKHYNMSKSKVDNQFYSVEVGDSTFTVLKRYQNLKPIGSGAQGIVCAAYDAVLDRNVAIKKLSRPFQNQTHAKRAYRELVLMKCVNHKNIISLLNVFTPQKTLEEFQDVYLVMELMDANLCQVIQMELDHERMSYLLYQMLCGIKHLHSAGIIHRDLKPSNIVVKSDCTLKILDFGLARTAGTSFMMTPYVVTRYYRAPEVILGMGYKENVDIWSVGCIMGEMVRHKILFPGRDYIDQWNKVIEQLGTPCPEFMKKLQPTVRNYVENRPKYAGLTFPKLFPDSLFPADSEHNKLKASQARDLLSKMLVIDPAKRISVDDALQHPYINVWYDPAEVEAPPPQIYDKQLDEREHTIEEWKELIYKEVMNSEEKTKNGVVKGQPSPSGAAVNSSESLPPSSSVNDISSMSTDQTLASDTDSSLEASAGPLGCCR
PKBα(h), sequence (P31749 whole entry): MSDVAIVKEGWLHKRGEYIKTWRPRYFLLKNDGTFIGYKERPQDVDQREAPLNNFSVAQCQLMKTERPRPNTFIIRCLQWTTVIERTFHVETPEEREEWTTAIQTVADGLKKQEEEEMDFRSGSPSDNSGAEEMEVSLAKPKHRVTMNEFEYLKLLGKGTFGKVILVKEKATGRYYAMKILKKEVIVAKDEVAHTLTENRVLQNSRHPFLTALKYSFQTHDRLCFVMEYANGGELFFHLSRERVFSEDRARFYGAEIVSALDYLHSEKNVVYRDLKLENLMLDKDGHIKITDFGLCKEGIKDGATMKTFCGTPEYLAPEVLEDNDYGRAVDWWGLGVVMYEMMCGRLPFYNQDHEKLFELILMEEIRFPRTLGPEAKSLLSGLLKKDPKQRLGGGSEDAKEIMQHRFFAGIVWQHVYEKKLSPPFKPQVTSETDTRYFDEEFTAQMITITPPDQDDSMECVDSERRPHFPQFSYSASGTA
T1 sequence (P08069 959-1367 limits assumed): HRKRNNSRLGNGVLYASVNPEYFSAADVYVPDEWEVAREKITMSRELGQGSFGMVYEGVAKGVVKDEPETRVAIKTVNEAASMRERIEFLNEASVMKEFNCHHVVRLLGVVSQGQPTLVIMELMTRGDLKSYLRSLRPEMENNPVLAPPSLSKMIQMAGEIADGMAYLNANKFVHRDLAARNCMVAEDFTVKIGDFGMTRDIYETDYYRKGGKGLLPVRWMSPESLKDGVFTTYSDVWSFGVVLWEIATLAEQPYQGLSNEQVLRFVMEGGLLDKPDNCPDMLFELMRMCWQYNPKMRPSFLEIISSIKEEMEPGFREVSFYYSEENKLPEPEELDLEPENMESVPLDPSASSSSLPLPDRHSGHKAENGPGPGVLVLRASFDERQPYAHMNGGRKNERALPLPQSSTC
T4 sequence (P43250 whole entry): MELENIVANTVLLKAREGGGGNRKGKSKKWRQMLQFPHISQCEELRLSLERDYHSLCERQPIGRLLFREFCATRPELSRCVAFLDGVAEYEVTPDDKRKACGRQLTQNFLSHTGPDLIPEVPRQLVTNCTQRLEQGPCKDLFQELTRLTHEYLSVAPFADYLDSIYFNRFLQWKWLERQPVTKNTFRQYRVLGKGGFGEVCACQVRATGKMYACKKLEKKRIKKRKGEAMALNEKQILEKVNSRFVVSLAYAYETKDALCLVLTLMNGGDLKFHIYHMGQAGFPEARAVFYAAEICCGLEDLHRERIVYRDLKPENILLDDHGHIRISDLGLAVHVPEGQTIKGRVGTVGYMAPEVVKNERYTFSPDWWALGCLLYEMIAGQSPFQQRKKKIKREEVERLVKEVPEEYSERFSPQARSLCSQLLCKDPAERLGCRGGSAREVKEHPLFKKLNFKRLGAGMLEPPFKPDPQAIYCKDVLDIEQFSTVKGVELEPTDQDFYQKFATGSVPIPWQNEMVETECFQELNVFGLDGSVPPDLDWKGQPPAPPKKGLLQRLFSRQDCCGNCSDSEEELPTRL

As to KAFAKLAARLYRKALARQLGVAA [MMI-0400], the “% activity” value with IGF-1R(h), activated is reported as 77%; with STK33(h), 52%; in the test with Plk3(h), 129%; with GCK(h) it was 66%; in the test with GRK6(h), 141%; in the test with JNK3(h), 70%. The “% activity” value was 67% in the test with PKBα(h), 100% with PDGFRα(V561D)(h), 118% with PRAK(h) and 75% in the test with PKCβII(h).
Turning to FAKLAARLYRKALARQLGVAA [MMI-0300], the “% activity” value is reported as 80% with IGF-1R(h), activated; 45% in the test with STK33(h); 127% with Plk3(h); 70% with GCK(h); 147% with GRK6(h); 89% with JNK3(h). Moreover, the “% activity” value is recorded as 57% in the test with PKBα(h), 82% in the test with PDGFRα(V561D)(h), 128% in the test with PRAK(h) and 82% with PKCβII(h).
Consider YARAAARQARAKALARQLGVAA [MMI-0100], for which the “% activity” value stood at 126% at IGF-1R(h), activated; 99% on STK33(h); 98% at GCK(h); 131% on GRK6(h); 159% on PRAK(h).
With “HRRIKAWLKKIKALARQLGVAA (Mammal) [MMI-0500]”, the “% activity” value in the test with IGF-1R(h), activated is listed as 45%; in the test with STK33(h), 16%; with Plk3(h), 122%; with GCK(h) it was 30%; with GRK6(h), 174%; in the test with JNK3(h), 171%. In addition, the “% activity” value in the test with PKBα(h) is 30%; with PDGFRα(V561D)(h), 146%; with PRAK(h), 95%; in the test with PKCβII(h), 3%.
Regarding “YARAAARQARAKALNRQLGVA (Mammal) [MMI-0200]”, the “% activity” value in the test with IGF-1R(h), activated was determined as 94%; in the test with STK33(h), 98%; with GCK(h), 99%; in the test with GRK6(h), 132%; with JNK3(h), 90%; in the test with PKBα(h), 110%. The “% activity” value in the test with PKCβII(h) is listed as 100%.

(Values after patent publication US20150258192A1, “COMPOSITIONS AND METHODS FOR PREVENTING OR TREATING CHRONIC LUNG ALLOGRAFT DYSFUNCTION (CLAD) AND IDIOPATHIC PULMONARY FIBROSIS (IPF)” (priority 2014, published 2015).)
